Results taken from PMC10298926, “Biophysical Characterization of the Binding Mechanism between the MATH Domain of SPOP and Its Physiological Partners” (International Journal of Molecular Sciences, 2023).
Where no end group is shown, it is not given here. The star is where a group is joined. Dansyl = CN(C)c1cccc2c(S(=O)(=O)*)cccc12

Key:
[1] = biological target: engineered MATH domain of SPOP (Speckle-type POZ protein), residues 1-182, cysteine residues substituted to serine (UniProt O43791); test: stopped-flow fluorescence binding kinetics; pseudo-first-order; 2 µM MATH mixed with dansylated peptide, 2 to 10 µM Puc and MacroH2A, 2 to 40 µM PTEN; excitation 280 nm; 298 K; kobs against peptide concentration fitted to a line, kon from the slope
[2] = biological target: engineered MATH domain of SPOP (Speckle-type POZ protein), residues 1-182, cysteine residues substituted to serine (UniProt O43791); test: stopped-flow fluorescence displacement; preincubated complex of MATH domain and dansylated peptide (both 8 µM) mixed with an excess of nondansylated peptide (50 µM); 298 K; same buffer as the binding experiments; single exponential decay gives koff
[3] = substrate: SPOP MATH K135A (UniProt O43791); test: stopped-flow fluorescence binding kinetics; pseudo-first-order; 2 µM MATH mixed with dansylated peptide, 2 to 10 µM Puc and MacroH2A, 2 to 40 µM PTEN; excitation 280 nm; 298 K; kobs against peptide concentration fitted to a line, kon from the slope
[4] = substrate: SPOP MATH Y124A (UniProt O43791); test: as above
[5] = substrate: SPOP MATH R71A (UniProt O43791); test: as above
[6] = substrate: SPOP MATH Y88A (UniProt O43791); test: as above
[7] = substrate: SPOP MATH K130A (UniProt O43791); test: as above
[8] = substrate: SPOP MATH D131A (UniProt O43791); test: as above
[9] = substrate: SPOP MATH F134A (UniProt O43791); test: as above
[10] = biological target: engineered MATH domain of SPOP (Speckle-type POZ protein), residues 1-182, cysteine residues substituted to serine (UniProt O43791); test: stopped-flow fluorescence binding kinetics + other: stopped-flow fluorescence displacement; KD calculated by combining kon of the pseudo-first-order plots with koff of the displacement experiments; 298 K
[11] = substrate: SPOP MATH K135A (UniProt O43791); test: stopped-flow fluorescence displacement; preincubated complex of MATH domain and dansylated peptide (both 8 µM) mixed with an excess of nondansylated peptide (50 µM); 298 K; same buffer as the binding experiments; single exponential decay gives koff
[12] = substrate: SPOP MATH Y124A (UniProt O43791); test: as above
[13] = substrate: SPOP MATH R71A (UniProt O43791); test: as above
[14] = substrate: SPOP MATH Y88A (UniProt O43791); test: as above
[15] = substrate: SPOP MATH K130A (UniProt O43791); test: as above
[16] = substrate: SPOP MATH D131A (UniProt O43791); test: as above
[17] = substrate: SPOP MATH F134A (UniProt O43791); test: as above
[18] = biological target: engineered MATH domain of SPOP (Speckle-type POZ protein), residues 1-182, cysteine residues substituted to serine (UniProt O43791); test: other fluorescence titration; equilibrium; FRET from the tryptophans of SPOP MATH (excited at 280 nm, emission 300-400 nm) to the dansyl of the peptide; MATH at constant concentration (2 µM in the methods, 1 µM in the results), dansylated peptide 0 to 40 µM; 298 K; hyperbolic fit

kon [1]: 1.9e+07 M⁻¹ s⁻¹
koff [2]: 26.1 s⁻¹
kon [3]: 6.3e+06 M⁻¹ s⁻¹
kon [4]: 6.71e+06 M⁻¹ s⁻¹
kon [5]: 8.8e+06 M⁻¹ s⁻¹
kon [6]: 1.44e+07 M⁻¹ s⁻¹
kon [7]: 1.3e+07 M⁻¹ s⁻¹
kon [8]: 1.82e+07 M⁻¹ s⁻¹
kon [9]: 9.4e+06 M⁻¹ s⁻¹
Kd [10]: 1400 nM
koff [11]: 45.2 s⁻¹
koff [12]: 78 s⁻¹
koff [13]: 34 s⁻¹
koff [14]: 302 s⁻¹
koff [15]: 123 s⁻¹
koff [16]: 241 s⁻¹
koff [17]: 15 s⁻¹
Kd [18]: 1400 nM
Binder: Dansyl-DEVTSTTSSS [dansylated peptide mimicking Puc (region 96-105)]
